Measurements published in the supplement of paper PMC7877785.
± gives the uncertainty stated by the source.

Experiment: self-splicing fitness, log relative to wild type (ln ratio); higher = more splicing; Tetrahymena group I intron in knt gene, E. coli kanamycin selection, DiMSum; sequences stand for … in CUCUCU…GGAGGGAAAAGUUAUCAGGCAUGCACCUGGUAGCUAGUCUUUAAACCAAUAGAUUGCAUCGGUUUAAAAGGCAAGACCGUCAAAUUGCGGGAAAGGGGUCAACAGCCGUUCAGUACCAAGUCUCAGGGGAAACUUUGAGAUGGCCUUGCAAAGGGUAUGGUAAUAAGCUGACGGACAUGGUCCUAACCACGCAGCCAAGUCCUAAGUCAACAGAUCUUCUGUUGAUAUGGAUGCAGUUCACAGACUAAAUGUCGGUCGGGGAAGAUGUAUUCUUCUCAUAAGAUAUAGUCGGACCUCUCCUUAAUGGGAGCUAGCGGAUGAAGUGAUGCAACACUGGAGCCGCUGGGAACUAAUUUGUAUGCGAAAGUAUAUUGAUUAGUUUUGGAGUACUCGUGGUCG
In short: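 A randomised library covering all eight P1ex-region intron nucleotides was built with the intron in the knt kanamycin-resistance gene on pET-22b(+) and held in E. coli BL21(DE3). Cells were grown overnight at 37°C or 30°C on LB agar, with or without 25 μg/mL kanamycin, plus 100 μg/mL carbenicillin, 50 μM IPTG and 0.2% rhamnose, and pooled colonies were amplicon-sequenced on an Illumina HiSeq 2500. DiMSum fitness is the error-weighted combination of wild-type-normalised replicate fold changes, kanamycin versus none.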

Sequence	self-splicing fitness (ln) (30 °C)	self-splicing fitness (ln) (37 °C)
GUUGAGCAAUAUUACGGGAU	-3.14 ± 0.15	-1.96 ± 0.15
GUUGAGCAAUAUUACGGUGC	-2.79 ± 0.3	-2.39 ± 0.44
GUUGAGCAAUAUUACGUACG	-2.57 ± 0.39	-2.31 ± 0.45
GUUGAGCAAUAUUACGUACU	-2.91 ± 0.25	-2.15 ± 0.2
GUUGAGCAAUAUUACGUCUC		-0.823 ± 0.46
GUUGAGCAAUAUUACGUGAC	-2.31 ± 0.24	-2.48 ± 0.31
GUUGAGCAAUAUUACGUGCA	-1.65 ± 0.45	-0.908 ± 0.28
GUUGAGCAAUAUUACGUGGA	-1.2 ± 0.37	-2.45 ± 0.34
GUUGAGCAAUAUUACGUUUA	-3.32 ± 0.28	-2.33 ± 0.31
GUUUAGCAAUAUUACGAACA	-2.02 ± 0.39	-1.24 ± 0.26
GUUUAGCAAUAUUACGACCC	-0.68 ± 0.19	-0.133 ± 0.24
GUUUAGCAAUAUUACGAGAG	-3.02 ± 0.17	-2 ± 0.14
GUUUAGCAAUAUUACGCAGG	-1.36 ± 0.2	-2.04 ± 0.34
GUUUAGCAAUAUUACGCGCC	-3.31 ± 0.43	-2.51 ± 0.44
GUUUAGCAAUAUUACGCGUG	-1.1 ± 0.071	-0.806 ± 0.082
GUUUAGCAAUAUUACGCUAG	-2.38 ± 0.16	-0.42 ± 0.13
GUUUAGCAAUAUUACGGAAG	-2.59 ± 0.23	-0.848 ± 0.22
GUUUAGCAAUAUUACGGCGG	-3.27 ± 0.44	
GUUUAGCAAUAUUACGGGUU		-2.92 ± 0.35
GUUUAGCAAUAUUACGGUGC	-1.02 ± 0.32	0.233 ± 0.44
GUUUAGCAAUAUUACGUACG	-2.01 ± 0.14	-0.33 ± 0.17
GUUUAGCAAUAUUACGUUAG	-2.24 ± 0.21	-0.81 ± 0.18
GUUUAGCAAUAUUACGUUUU	-2.72 ± 0.14	-1.65 ± 0.18
UAAAAGCAAUAUUACGAAAC	-2.8 ± 0.19	-3.3 ± 0.43
UAAAAGCAAUAUUACGAAUC	-4.16 ± 0.42	-2.13 ± 0.21

Sequence	self-splicing fitness (ln) (30 °C)	self-splicing fitness (ln) (37 °C)
UAAAAGCAAUAUUACGAGGA	-2.79 ± 0.17	-1.54 ± 0.14
UAAAAGCAAUAUUACGAGUA	-1.26 ± 0.068	-0.418 ± 0.082
UAAAAGCAAUAUUACGAUUC	-2.85 ± 0.17	-1.02 ± 0.2
UAAAAGCAAUAUUACGCAUU	-3.33 ± 0.19	-2.15 ± 0.19
UAAAAGCAAUAUUACGCCAC		-2.02 ± 0.36
UAAAAGCAAUAUUACGCCCA	-0.0418 ± 0.15	0.358 ± 0.19
UAAAAGCAAUAUUACGCGCC	-1.76 ± 0.2	-0.751 ± 0.24
UAAAAGCAAUAUUACGGAAA	-2.5 ± 0.23	-1.72 ± 0.15
UAAAAGCAAUAUUACGGCAA	-0.166 ± 0.1	-0.176 ± 0.1
UAAAAGCAAUAUUACGUAAG	-1.01 ± 0.079	-0.764 ± 0.11
UAAAAGCAAUAUUACGUACU	-0.876 ± 0.073	-0.401 ± 0.092
UAAAAGCAAUAUUACGUCCG	-0.59 ± 0.082	0.205 ± 0.1
UAAAAGCAAUAUUACGUUCA	-0.437 ± 0.083	-0.259 ± 0.091
UAAAAGCAAUAUUACGUUGC	-3.72 ± 0.27	-3.17 ± 0.4
UAAAAGCAAUAUUACGUUUG	-2.22 ± 0.1	-0.909 ± 0.11
UAACAGCAAUAUUACGAAGC	-3.19 ± 0.19	-2.3 ± 0.27
UAACAGCAAUAUUACGAAUC	-2.67 ± 0.18	-2.66 ± 0.29
UAACAGCAAUAUUACGACUC	-0.882 ± 0.084	-0.517 ± 0.11
UAACAGCAAUAUUACGAGAU	-4.15 ± 0.33	-2.9 ± 0.2
UAACAGCAAUAUUACGAGUC	-3.74 ± 0.23	-2.05 ± 0.22
UAACAGCAAUAUUACGAUAA	-1.1 ± 0.076	-0.209 ± 0.08
UAACAGCAAUAUUACGAUCU	-1.04 ± 0.073	0.151 ± 0.099
UAACAGCAAUAUUACGCAGG	-2.5 ± 0.09	-0.402 ± 0.08
UAACAGCAAUAUUACGCGCC	-1.47 ± 0.1	-0.587 ± 0.13
